Substitutions are numbered along the chain they refer to.
B1: 3F6 anti-KAAG1 antibody (antibody, V domains shown)
VH: EVQLQQSGPELVKPGASVKMSCKASGYIFTEYNIHWVKQKPGQGPEWIGNINPYNDVTEYNEKFKGKATLTSDKASSTAYMDLSSLTSEDSAVYYCARWGLRNWGQGTLVTVSA
VL: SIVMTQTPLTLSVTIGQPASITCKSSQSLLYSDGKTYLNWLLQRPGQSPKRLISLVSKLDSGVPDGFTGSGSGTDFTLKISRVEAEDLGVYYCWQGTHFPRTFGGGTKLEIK
notes: Variable regions only; Isolated from a Fab library
B2: 3E8 anti-KAAG1 antibody (antibody, V domains shown)
VH: B1 VH with G8V, A24T, I28T, I34M, D56N, A75S, M81L
VL: not shown
notes: as for B1
B3: 3A9 anti-KAAG1 antibody (antibody, V domains shown)
VH: QVQVQQPGAELVRPGASVTLSCKASGYIFTDYEVHWVRQRPVHGLEWIGVIDPETGDTAYNQKFKGKATLTADKSSSTAYMELSSLTAEDSAVYYCIGYADYWGQGTTLTVSS
VL: DIVMTQSPSSLAMSLGQKVTMSCKSSQSLLNSNNQLNYLAWYQQKPGQSPKLLVYFASTRKSGVPDRFIGSGSGTDFTLTITSVQAEDLADYFCQQHFNTPLTFGAGTKLELK
notes: as for B1
B4: humanized 3A4 antibody Lh1Hh2 (antibody, human IgG1, kappa, V domains shown)
VH: QIQLVQSGAEVKKPGASVKVSCKASGYTFTDDYMSWVRQAPGQGLEWMGDINPYNGDTNYNQKFKGRVTITADKSTSTAYMELSSLRSEDTAVYYCARDPGAMDYWGQGTLVTVSS
VL: DIVMTQTPLSLPVTPGEPASISCRSSQSLLHSNGNTYLEWYLQKPGQSPQLLIYTVSNRFSGVPDRFSGSGSGTDFTLKISRVEAEDVGVYYCFQGSHVPLTFGQGTKLEIKR
notes: Human IgG1/kappa
B5: 3E10 anti-KAAG1 antibody (antibody, V domains shown)
VH: EVQLQQSGPELVKPGASVKISCKASGDTFTDYYMNWVKQSHGKSLEWIGDINPNYGGITYNQKFKGKATLTVDTSSSTAYMELRGLTSEDSAVYYCQAYYRNSDYWGQGTTLTVSS
VL: DIVMTQAAPSVPVTPGESVSISCRSSKSLLHSNGNTYLYWFLQRPGQSPQLLIYRMSNLASGVPDRFSGSGSGTAFTLRISRVEAEDVGVYYCMQHLEYPYTFGGGTKLEIK
notes: as for B1
B6: chimeric 3A4 anti-KAAG1 antibody (mouse variable regions, human IgG1/kappa constant regions) (antibody, V domains shown)
VH: QIQLVQSGPEMVKPGASVKMSCKASGYTFTDDYMSWVKQSHGKSLEWIGDINPYNGDTNYNQKFKGKAILTVDKSSSTAYMQLNSLTSEDSAVYYCARDPGAMDYWGQGTSVTVSS
VL: DVVMTQTPLSLAVSLGDQASISCRSSQSLLHSNGNTYLEWYLQKPGQSPKLLIHTVSNRFSGVPDRFSGSGSGTDFTLKISRVEAEDLGVYYCFQGSHVPLTFGAGTRLELKR
notes: It is treated here as the same molecule; also called LcHc; murine 3A4 (LcHc)
B7: 3D1 anti-KAAG1 antibody (antibody, V domains shown)
VH: EVQLQESGPDLVKPSQSLSLTCTVTGFSITSGYGWHWIRQFPGDKLEWMGYISFNGDYNYNPSLKSRISITRDTSKNQFFLQLSSVTTEDTATYYCASSYDGLFAYWGQGTLVTVSA
VL: DIKMTQSPSSMYASLGERVTITCKASQDIHTYLNWFQQKPGKSPETLIYRANRLVDGVPSRFSGSGSGQDYSLTISSLEYEDMGIYYCLQYDEFPLTFGAGTKLELK
notes: as for B1
B8: 3C2 anti-KAAG1 antibody (antibody, V domains shown)
VH: B7 VH with E1D, D44N, Y58S, S84N, T88S, T111P
VL: B7 VL with K3Q, I21L, T31N, E45K, Y49H, D56A, M83L, E93A
notes: as for B1
B9: 3C4 anti-KAAG1 antibody (antibody, V domains shown)
VH: B7 VH with D44N, S53N, F54Y, N55D, D57H, Y58N, N59D, R72Q, S84N
VL: DIVMSQSPSSMYASLGERVTITCKASQDIHNFLNWFQQKPGKSPKTLIFRANRLVDGVPSRFSGSGSGQDYSLTISSLEFEDLGIYSCLQYDEIPLTFGAGTKLELR
B10: 3A2 anti-KAAG1 antibody (antibody, V domains shown)
VH: EIQLQQSGPELVKPGASVKMSCKTSGYTFTDYNMHWVKQKPGQGLEWIGYINPYNDVTEYNEKFKGRATLTSDKSSSTAYMDLSSLTSDDSAVYFCAWFGLRQWGQGTLVTVST
VL: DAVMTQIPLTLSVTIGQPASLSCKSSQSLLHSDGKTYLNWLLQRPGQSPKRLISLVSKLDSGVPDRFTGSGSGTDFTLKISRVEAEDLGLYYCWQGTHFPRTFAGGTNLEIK
notes: as for B1
B11: 3D3 anti-KAAG1 antibody (antibody, V domains shown)
VH: EVQLQQSVAELVRPGASVTLSCKASGYIFTDYEIHWVKQTPVHGLEWIGVIDPETGNTAFNQKFKGKATLTADISSSTAYMELSSLTSEDSAVYYCMGYSDYWGQGTTLTVSS
VL: DIVMTQSPSSLAVSIGQKVTMNCKSSQSLLNSNFQKNFLAWYQQKPGQSPKLLIYFASTRESSIPDRFIGSGSGTDFTLTISSVQAEDLADYFCQQHYSTPLTFGAGTKLELK
B12: 3G12 anti-KAAG1 antibody (antibody, V domains shown)
VH: B11 VH with L20V, V42A
VL: DIVMTQSPKFMSTSVGDRVSITCKASQDVGTAVAWYQQKPGQSPELLIYWTSTRHTGVPDRFSGSGSGTDFTLTISSVQAEDLADYFCQQHYSIPLTFGAGTKLELR
notes: as for B1
B13: 3B11 anti-KAAG1 antibody (antibody, V domains shown)
VH: B11 VH with I28T, I34M, H43R, E54A, N57D, F60Y, I74K, T78A, Y80F
VL: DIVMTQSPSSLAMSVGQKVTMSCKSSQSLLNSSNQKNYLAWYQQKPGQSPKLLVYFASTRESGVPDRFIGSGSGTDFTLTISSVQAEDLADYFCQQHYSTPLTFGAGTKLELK
notes: as for B1
B14: 3E12 anti-KAAG1 antibody (antibody, V domains shown)
VH: B11 VH with E1Q, V8E, R13K, T19K, I28T, N57D, F60Y, I74K, S85R, Y99H
VL: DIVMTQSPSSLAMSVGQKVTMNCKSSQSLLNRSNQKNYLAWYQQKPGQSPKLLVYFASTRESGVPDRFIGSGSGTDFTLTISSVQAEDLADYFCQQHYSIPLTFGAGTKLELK
notes: as for B1
B15: 3B1 anti-KAAG1 antibody (antibody, V domains shown)
VH: B11 VH with E1Q, S7P, V8G, I28T, N57G, F60Y, A72T, I74K, S84R
VL: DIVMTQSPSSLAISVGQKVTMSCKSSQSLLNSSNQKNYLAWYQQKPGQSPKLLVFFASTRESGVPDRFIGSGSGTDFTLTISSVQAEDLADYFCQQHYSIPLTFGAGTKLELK
notes: as for B1
B16: 3F4 anti-KAAG1 antibody (antibody, V domains shown)
VH: B11 VH with V8G, I28T, N57S, F60Y, I74K, S75A
VL: DIVMTQSPSSLTVTAGEKVTMSCKSSQSLLNTSNQKNYLAWYQQKPGQSPKLLVYFASTRASGVPDRFIGSGSGTDFTLTISSVQAEDLADYFCQQHYSTPLTFGAGTKLELK
notes: as for B1
B17: 3G5 anti-KAAG1 antibody (antibody, V domains shown)
VH: QVQLQQPGAELVRPGASVTLSCKASGYTFTDYEIHWVKQTPVHGLEWIGVLDPGTGRTAYNQKFKDKATLSADKSSSTAYMELSSLTSEDSAVYYCMSYSDYWGPGTTLTVSS
VL: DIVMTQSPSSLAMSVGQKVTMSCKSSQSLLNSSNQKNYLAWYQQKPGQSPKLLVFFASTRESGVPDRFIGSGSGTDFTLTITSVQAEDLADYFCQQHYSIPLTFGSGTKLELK
notes: as for B1
B18: 3C3 anti-KAAG1 antibody (antibody, V domains shown)
VH: B11 VH with L11V, I28T, N57V, F60Y, K63R, K65R, G66D, A72T, I74K, Y95F
VL: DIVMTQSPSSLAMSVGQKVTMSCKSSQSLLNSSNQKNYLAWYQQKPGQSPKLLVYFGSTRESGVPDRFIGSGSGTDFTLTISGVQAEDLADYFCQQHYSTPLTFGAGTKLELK
notes: as for B1
B19: 3G8 anti-KAAG1 antibody (antibody, V domains shown)
VH: B11 VH with E1Q, Q5K, V8G, I28T, I34V, E54A, N57D, F60Y, I74K, L83V
VL: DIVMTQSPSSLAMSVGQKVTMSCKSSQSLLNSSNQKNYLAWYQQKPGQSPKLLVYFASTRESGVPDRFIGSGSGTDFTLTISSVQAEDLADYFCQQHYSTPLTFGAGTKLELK
notes: as for B1
B20: 3F10 anti-KAAG1 antibody (antibody, V domains shown)
VH: B11 VH with S17P, I28T, I34V, N57A, F60Y, I74K, T78A, S85R, G98S
VL: B16 VL with V13M, T14S, A15V, E17Q, K36L, R60T, A61E
notes: as for B1
B21: 3B8 anti-KAAG1 antibody (antibody, V domains shown)
VH: B11 VH with V8G, I28T, N57D, F60Y, K63N, K65T, I74K, S100A
VL: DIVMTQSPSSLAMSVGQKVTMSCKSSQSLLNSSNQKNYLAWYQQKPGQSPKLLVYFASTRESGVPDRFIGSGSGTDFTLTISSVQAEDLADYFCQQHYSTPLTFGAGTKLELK
notes: as for B1
B22: 3F7 anti-KAAG1 antibody (antibody, V domains shown)
VH: B11 VH with E1Q, V2A, Q3Y, V8G, I28T, N57D, F60Y, G66D, I74K, S75A
VL: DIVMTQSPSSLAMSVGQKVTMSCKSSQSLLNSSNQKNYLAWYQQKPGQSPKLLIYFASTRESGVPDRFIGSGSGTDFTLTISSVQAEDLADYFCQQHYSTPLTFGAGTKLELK
notes: as for B1
B23: 3E9 anti-KAAG1 antibody (antibody, V domains shown)
VH: B11 VH with V8G, V18A, I28T, I34M, N57S, F60Y, I74K, S100A
VL: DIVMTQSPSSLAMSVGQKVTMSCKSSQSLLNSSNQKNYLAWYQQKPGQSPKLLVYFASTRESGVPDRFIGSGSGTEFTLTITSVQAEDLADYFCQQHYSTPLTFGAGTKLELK
notes: as for B1
B24: 4A2 anti-KAAG1 antibody (antibody, V domains shown)
VH: QVKLQQSGTELVRPGASVTLSCKASGYKFTDYEMHWVKQTPVHGLEWIGGIDPETGGTAYNQKFKGKAILTADKSSTTAYMELRSLTSEDSAVYYCISYAMDYWGQGTSVTVSS
VL: DIVMTQSPSSLAMSVGQKVTMNCKSSQSLLNNSNQKNYLAWYQQKPGQSPKLLLYFASTRESGVPDRFIGSGSGTYFTLTISSVQAEDLADYFCQQHYSTPLTFGAGTKLDLK
notes: as for B1
B25: 3E6 anti-KAAG1 antibody (antibody, V domains shown)
VH: B24 VH with K3Q, T9A, K28T, T30S, G57D, A59V, I69T, T77S, R84S
VL: B7 VL with K3Q, I21L, T31N, E45K, Y49H, D56A, M83L, E93A
notes: as for B1

Experiments:
[1] = biological target: T1, recombinant human KAAG1 (Kidney associated antigen 1) (human, UniProt Q9UBP8 1-84); assay: not described; list of antibodies generated
T1 construct: also called KAAG1 protein
T1 sequence: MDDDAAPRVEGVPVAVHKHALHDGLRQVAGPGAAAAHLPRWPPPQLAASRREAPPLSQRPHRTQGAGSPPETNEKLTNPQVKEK

[2] = biological target: T1, recombinant human KAAG1 (Kidney …); assay: SPR (BioRad ProteOn XPR36); fold difference of KD relative to LcHc
Method: (§1) Immediately after the activation, a 13 μg/mL solution of anti-human IgG Fc fragment specific in 10 mM NaOAc pH 4.5 was injected in the analyte direction at a flow rate of 25 μL/min until approximately 8000 resonance units (RUs) were immobilized. Remaining active groups were quenched by a 300 s injection of 1M ethanolamine at 30 μL/min in the analyte direction, and this also ensures mock-activated interspots are created for blank referencing. The screening of the 3A4 variants for binding to KAAG1 occurred in two steps: an indirect capture of 3A4 variants from cell supernatant onto the anti-human IgG Fc fragment specific surface in the ligand direction(vertical) followed by a KAAG1 injection in the analyte direction. Firstly, one buffer injection for 30 s at 100 uL/min in the ligand direction was used to stabilize the baseline. […] Four to five 3A4 variants along with wild-type 3A4 were simultaneously injected in individual ligand channels for 240 s at flow 25 μL/min. […] The first ligand channel was left empty to use as a blank control if required. This 3A4 capture step was immediately followed by two buffer injections in the analyte direction to stabilize the baseline, and then the gel filtration purified KAAG1 was injected. For a typical screen, five KAAG1 concentrations (8, 2.66, 0.89, 0.29, and 0.098 nM) and buffer control were simultaneously injected in individual analyte channels at 50 μL/min for 120 s with a 600s dissociation phase, resulting in a set of binding sensorgrams with a buffer reference for each of the captured 3A4 variants. The anti-human IgG Fc fragment specific—3A4 complexes were regenerated by a 18 s pulse of 0.85% phosphoric acid for 18 s at 100 μL/min to prepare the anti-human IgG Fc fragment specific surface for the next injection cycle. Sensorgrams were aligned and double-referenced using the buffer blank injection and interspots, and the resulting sensorgrams were analyzed using ProteOn Manager software v3.0.

[3] = biological target: T1, recombinant human KAAG1 (Kidney …); assay: SPR (BioRad ProteOn XPR36): antibody captured on an anti-human IgG Fc surface, KAAG1 injected as analyte, 1:1 Langmuir fit
Method: as §1

| Binder | binding result [1] | other results |
| --- | --- | --- |
| B1 | binds |  |
| B2 | binds |  |
| B3 | binds |  |
| B4 |  | Fold diff. [2]: 13.2; Kd [3]: 0.211 nM; koff [3]: 0.00119 s⁻¹; kon [3]: 5.65e+06 M⁻¹ s⁻¹ |
| B5 | binds |  |
| B6 |  | Kd [3]: 0.016 nM; koff [3]: 0.000121 s⁻¹; kon [3]: 7.72e+06 M⁻¹ s⁻¹ |
| B7 | binds |  |
| B8 | binds |  |
| B9 | binds |  |
| B10 | binds |  |
| B11 | binds |  |
| B12 | binds |  |
| B13 | binds |  |
| B14 | binds |  |
| B15 | binds |  |
| B16 | binds |  |
| B17 | binds |  |
| B18 | binds |  |
| B19 | binds |  |
| B20 | binds |  |
| B21 | binds |  |
| B22 | binds |  |
| B23 | binds |  |
| B24 | binds |  |
| B25 | binds |  |
